Blank lines part the entries; values can stand above or below the substance they belong to.
How the values were obtained:
[1] = biological target: CD8; assay: same staining; plot CD8 against CD4: upper right 0.30, lower left 11.12
[2] = biological target: CD8; assay: same staining; plot CD8 against CD3, all events CD3-positive: upper left 0.00, lower left 0.00, lower right 71.27
[3] = biological target: CD45; assay: flow cytometry of PBMCs, co-staining in the BSA series, 0% BSA; left quadrants 0.00 and 0.01
[4] = biological target: CD45; assay: flow cytometry of PBMCs, co-staining in the BSA series, 10% BSA; left quadrants 0.00 and 0.01
[5] = biological target: CD45; assay: flow cytometry of PBMCs, co-staining in the BSA series, 20% BSA; left quadrants 0.00 and 0.00
[6] = biological target: CD45; assay: flow cytometry of PBMCs stained with four mouse IgG1 primaries, each pre-labelled with an anti-mouse IgG1 linker; plot CD3 against CD45: upper left 0.03, lower left 0.14
[7] = biological target: CD45; assay: flow cytometry of PBMCs stained at once with mouse IgG1 anti-CD45 (linker-488, FITC), mouse IgG2a anti-CD3 (linker-555, PE), mouse IgG2b anti-CD4 (linker-647, APC); left plot: Q5 0, Q8 0.21
[8] = biological target: CD3 (Homo sapiens (Human)) (UniProt P07766); assay: flow cytometry of PBMCs, FSC-H against APC-A, No Quencher; Q4 100.0

% of cells, upper left quadrant (CD8-positive, CD4-negative) [1]: 28.4% | % of cells, upper right quadrant (CD3+/CD8+) [2]: 28.7%
Substance: CD8 (65144-1-Ig) (antibody)

% of cells, lower right quadrant (CD45-positive, CD3-negative) [3]: 47% | % of cells, upper right quadrant (CD45-positive, CD3-positive) [3]: 52.9% | % of cells, lower right quadrant (CD45-positive, CD3-negative) [4]: 46.1% | % of cells, upper right quadrant (CD45-positive, CD3-positive) [4]: 53.9% | % of cells, lower right quadrant (CD45-positive, CD3-negative) [5]: 45.7% | % of cells, upper right quadrant (CD45-positive, CD3-positive) [5]: 54.3% | % of cells, lower right quadrant (CD45-positive, CD3-negative) [6]: 28.5% | % of cells, upper right quadrant (CD3+/CD45+) [6]: 71.4% | Q6 (% of cells, FITC-positive and PE-positive) [7]: 55.4% | Q7 (% of cells, FITC-positive and PE-negative) [7]: 44.4%
Substance: CD45 (65109-1-Ig) (antibody)

Q3 (% of cells, APC-positive) [8]: 0.025%
Substance: mouse IgG1 isotype control (antibody)

From US20250155429A1
